Test results as given in the DeepSol protein solubility set.

Assay: soluble on expression in E. coli; label from the status in PepcDB or PDB records
With “SSHGHSHGGGGCRCAAEREEPPEQRGLAYGLYLRIDLERLQCLNESREGSGRGVFKPWEERTDRSKFVESDADEELLFNIPFTGNVKLKGIIIMGEDDDSHPSEMRLYKNIPQMSFDDTEREPDQTFSLNRDLTGELEYATKISRFSNVYHLSIHISKNFGADTTKVFYIGLRGEWTELRRHEVTICNYEASANPADHRVHQVTPQTHFIS” the “soluble on expression in E. coli” value was “soluble”. In the case of “GPGSMLLPRTDSHDPDANDADPRSSSSAPSVSAPALSFTTTADALASTPLSNTNPCAAYTWLPDTRSTAPPDATTRALAYNAYSPPSTAASSATPPPTSSSTAPSTTTVRPPVITVTRATPDTTSTDRTSRRPDSTSTGAYGEDCEPGRYTSGVDLAATSRESVTVSTDPAGNVPVSTSAPFSAST”, the “soluble on expression in E. coli” value is reported as “soluble”. For “MATGLGFFKLSFLLSLLSGGSDLLGPDAESGVAQIGKFPPSCNRIECPSYELVHSGNGYEIRRYNNTVWVSTEPIPDISLVDATRTAFFQLFAYIQGKNEYHQKIEMTAPVISQVSPSDGPFCESSFTVSFYVPKKNQPDPAPSENLHIQKWNSRYVAVRQFSGFVSDDSIGEQAAALDSSLKGTAWANAIAKSKEDGGVGSDSAYTVAQYNSPFEFSGRVNEIWLPFELDV”, the “soluble on expression in E. coli” value was “not soluble”. For “MYSFELDKLKIELKTWEHDFIDKNKREPTRDDIKSLRTVRQMYKQYSTLKKKQSLQRQKVDTQESVELPAHKKDHDEVVEIGPTPQVYGKAISIFDMNLSPIKPIYMTFTNNIDVNNDNSKTISNESSPRKTILLKSSPADRTLVAEPISSVKRQLNFQMLNASSTRTPTSSPCKNRNGKLVEIKKCSPTINPPLESGKPSGYYGPNSPLKLDEENIHLNISLNSSTKRRLQIAYPSLQKTPSKDQADISTSFSPSPLIRRPLTKSLIELAREHTEIVKEFGVLQEEDIEEEEEGEEGENGYDEKNHEDDFGLEDELIRPKVVKDIFQEDDDNDDSQAREDTFIRKRPKRRKVIRRLRDNDPETETAGFERDVHKELVKLKRRKVAEFLGSTSQISDTEFEHDPEASSGVVSSEQKPTAKRKGRKKYNLVSNNFRRLKLPKKNRFSNGRWGRR”, the “soluble on expression in E. coli” value was “not soluble”. With “MGSDKIHHHHHHMEVAEGEFKPAFPIKPAQQLVFVHIPKCGGTSMHQFLANAKKVQPEPELSTILAGYCEPALHKHSKAAVIRDLVGPALWQTIFTFSVVRNPWDLMLSSYRWWLQKAGRFSSLRAQADEVADLGSFEGFLKSDFGGNRINECEGDILSWLSDENGQEIVDFVGRLEDIEQALQNVFERAGLAGYSEFPRLNSTVRGGYQDYYNAETKRLIQTRFQATIDRFEYQF” the “soluble on expression in E. coli” value was “not soluble”. In the case of “VDNVFIVGHRKLDMDALGSAVGMQFFAGNIIENSFAVYNPDEMSPDIERAIERLQADGKTRLISVSQAMGLVTPRSLLVMVDHSKISLTLSKEFYEQFQNVIVVDHHRRDDDFPDNAILTFIESGASSAAELVTELIQFQNAKKCLNKIQASVLMAGIMLDTKNFSTRVTSRTFDVASYLRSKGSDSVEIQNISATD”, the “soluble on expression in E. coli” value is reported as “not soluble”. With “RYHEFLGHFMNQFTSFGVAGAHGKTSTTGLLSHSMKNITDTSYLIGDGTGRGSANAQYFVFEADEYERHFMPYHPAYSIITNIDFDHPDYFTSIDDVFSAFDDYAKQVQKGLFVYGEDSNLRKITSNAPIYYYGFEENDDFMATDIIRTTTGSNFKVKHDGQIIGEFHVPAYGRHNILNATAVIANLYVAGFDMALVAEHLKTFSGV” the “soluble on expression in E. coli” value was “not soluble”. With “MRYTVALTGGIGSGKSTVADAFADLGITVIDADIIARQMVEPGQPALNAIAEHFGSELIAADGTLRRRALRERIFSHPEEKAWLNALLHPLIQQETQRQFQQATSPYVLWVVPLLVENRLYQKANRVLVVDVTPETQLIRTMQRDDVTREHVEHILAAQATREARLAVADDVIDNNGAPDAIASDVARLHASYLKLASQFVSQEKP” the “soluble on expression in E. coli” value was “not soluble”. For “MVSITSDAIRNALHKVKGPNFESDIVSLGLLSEILVVHGKVFFSITVPDGRVQEWESLRRSVEEVVSALDGVEAVFVTLTTERRPEMSSQLQRDEVFFAPKRRANRLLEKMPIEGVRHVVAVASGKGGVGKSTMAINIALALQDSGFKTGLMDADIYGPSLPRLTGLVNQKPQYIDGKKLHPLEKFGLKLMSMGFLVEEENPVVWRGPMVMAAVTQLLRDVLWGPLDVLVVDMPPGTGDAQLTLAQQVQLTGALIVSTPQDLALVDARKAMEMFMKVNVPILGLIENMSYFIAPDTGKRYDIFGYGGTRAEARRRGVPFLAEVPLDAALRSSSDDGIPIFVAKPDEEHTKLYRSIVGQIKNKFF”, the “soluble on expression in E. coli” value was “not soluble”. In the case of “MSATAGRVVRAGQHAVRTVAPIKSNNSAEARMSVLAAYKEFQRLTPKFWWDFGLHDMPLGVFRAVIKKQFTKNGHLTDVRVVDRLVGETHQHMKSIRYAFYNPDHVRNYLFAENVEAKPKDFLSKFLNGKE”, the “soluble on expression in E. coli” value is reported as “not soluble”. In the case of “MGSSHHHHHHSSGLVPRGSHMGLQDYQRLHKESIEDPAKFFGSKATQFLNWSKPFDKVFIPDPKTGRPSFQNNAWFLNGQLNACYNCVDRHALKTPNKKAIIFEGDEPGQGYSITYKELLEEVCQVAQVLTYSMGVRKGDTVAVYMPMVPEAIITLLAISRIGAIHSVVFAGFSSNSLRDRINDGDSKVVITTDESNRGGKVIETKRIVDDALRETPGVRHVLVYRKTNNPSVAFHAPRDLDWATEKKKYKTYYPCTPVDSEDPLFLLYTSGSTGAPKGVQHSTAGYLLGALLTMRYTFDTHQEDVFFTAGDIGWITGHTYVVYGPLLYGCATLVFEGTPAYPNYSRYWDIIDEHKVTQFYVAPTALRLLKRAGDSYIENHSLKSLRCLGSVGEPIAAEVWEWYSEKIGKNEIPIVDTYWQTESGSHLVTPLAGGVTPMKPGSASFPFFGIDAVVLDPNTGEELNTSHAEGVLAVKAAWPSFARTIWKNHDRYLDTYLNPYPGYYFTGDGAAKDKDGYIWILGRVDDVVNVSGHRLSTAEIEAAIIEDPIVAECAVVGFNDDLTGQAVAAFVVLKNKSSWSTATDDELQDIKKHLVFTVRKDIGPFAAPKLIILVDDLPKTRSGKIMRRILRKILAGESDQLGDVSTLSNPGIVRHLIDSVKL”, the “soluble on expression in E. coli” value is reported as “soluble”. For “MSDQIADARLVPLGAILTRMSTVVDMPETRGHLISAITTASDPGEILYLSSRADFSEGGSIRGGVPIIAPWFAKNLGHDELQHGWARRVEWETIPTNGGIDARTSHDDWDLRLGTQVLPHGFAMMLKARNASPLRRDFQSAFHPYFRVADVRTTTVTVGDQEFRFDGTAVDQAVPLPEWTPLVIKDSQRTITVTYQGADHAVVWNPGSELAAQMTDVGEGEWTEFVCVEPALLGDHAQGISVPPWDWVEIGMTVKVTPAQ”, the “soluble on expression in E. coli” value was “not soluble”. In the case of “MMAKDFYSAIEDRRSIYAISKEQVVSDEKIQEVIYHAVKHTPSAFNSQSARVVVLLGEQHDKLWDITKETLRKIVPENNFAPTEEKMNAFKSGYGTVLYFEDSEVVESLQANFALYKDNFPTWSQQSSGMLQFAIWTALEIEGFGATLQHYNPLIDEEVRKEWDVPANWKLIAQMPFGKPVVQAGEKEFQPLENRVKIYK”, the “soluble on expression in E. coli” value is reported as “not soluble”. With “MGSDKIHHHHHHMDSSAAFSNPTKLRADLLRGRLDVSVDSSTIAPDSLFGFAERRNPKRAFLFVSRVLGRHIPARPSVMLKSFQDLAHKIPVDLPGPVLVIGMAETAVGLGAGVHRAYSETHSDALYLVSTRHPTGTELFARFEEEHSHASAHLIHLPADPALRDMMLGARSLVLVDDEASTGKTFINLHQALVEAGLSKIERVVTCVLTDWSAGAVSTSMGAVAEQVSLLQGSYSFDEDVSAPLPDMPEVGTVAMGDWPLLTANDWGRMGVLAVADTLAPGLTVNKGERVLVVGTSEFVWRPFLLAERLEKAGADVHFSSTSRSPIALGHAIDHALSFSDNYGLGIPNFLYNVRPGQFDRVLICTETPRQAVPAELIEALNAEVICDE” the “soluble on expression in E. coli” value was “not soluble”. In the case of “MSLKIFPSSSIKKLDAYTIEHEPIASIDLMERAAQALTKAITERWDITTPVTVFAGPGNNGGDALAVARMLAEKEYKVEAYLFNPKGELSADCQTNKELVEMMDNVKFSEVSTQFVPPTLTMDHLVVDGLFGSGLNKPLSGGFAAVVKYINASPATVVAIDIPSGLMGEENTFNVKANIIRAQLTLSLQLPKLAFLFAENSEFVGEWKLLDINLSREAIEETESNYALLEAEEIHALIKPRNTFSHKGNFGHALLIAGSYGMAGASILAARACMRSGVGLLTVHAPIRNNDILQISVPEAIIESDASDTYFACPTDTDDYQAVGIGPGIGRSEETEAALLEQLSGCQTPLVLDADALNILANHRHALTTLPKGSILTPHPKELERMVGKCQNSYERLMKACELARTAKVHIILKGAYSAIITPSGKCYFNSTGNPGMATAGSGDVLTGVVLALLAQGYPAEEAAKIGTYVHGLAGDFARKKQGVISMTAGDIISNLPLAWRLVSEGHHHHHH”, the “soluble on expression in E. coli” value is reported as “soluble”. In the case of “MPSGYGVLLATHDDDTVDVFTSGRKMRLTCSPNIDAASLKKGQTVRLNEALTVVEAGTFEAVGEISTLREILADGHRALVVGHADEERVVWLADPLIAEDLPDGLPEALNDDTRPRKLRPGDSLLVDTKAGYAFERIPKAEVEDLVLEELVPR”, the “soluble on expression in E. coli” value is reported as “soluble”. With “MADVALRITETVARLQKELKCGICCSTYKDPILSTCFHIFCRSCINACFERKRKVQCPICRSVLDKRSCRDTYQITMAVQNYLKLSEAFKKDIENMNTFKSLPPEKMFMESQMPLDITIIPENDGKRCAPDFAIPFLPVRRKRPSRPQPPSAFAEEPAEPVEPPEPATKQPVELQSRVFPLEKLKKDVETSTETYKISREELKNVDIEEYINTLRENSTEIDEIDALFQLMPTMRQFLRNNINQLMEKFHVAPPKKSEKPANRRVSFASSQDLENIKIMTASESLETPPEPIQKLAQKPEVFKSTQNLIDLNLNTAVKKPVVVASDDDEVVEDSEGELQIDEDDLANVTCATSVRNIGKSLCAEYIRGVRQICRICRLPSSANFKKVDLPNLPSSANFEICRTRQKFDSTISTKTTDFFAKNSQLIELVQQCGGEILSCYENLSPEKLYIIFSKHSKAIEESKNIENLYKCDVVTMEWVLDSISEYLILPTQPYKAVDSIGCLQD” the “soluble on expression in E. coli” value was “not soluble”. For “MDVAGLTDCGLIRKSNQDAFYIDEKHQRFFIVADGMGGHAGGEEASRLAVDHIRQYLETHLEDLQHDPVTLLRQAFLAANHAIVEQQRQNSARADMGTTAVVILLDEKGDRAWCAHVGDSRIYRWRKDQLQQITSDHTWIAQAVQLGSLTIEQARQHPWRHVLSQCLGREDLSQIDIQPIDLEPGDRLLLCSDGLTEELTDDVISIYLSEPNVQKAAAALVDAAKTHGGRDNVTVVVISV”, the “soluble on expression in E. coli” value was “soluble”. For “MADERRCGVCRPLGGPRQPWPAGLLHCSSRAIFASLCMPRIVFAPAIQRHVAMPALDVGAATVAAALQAAFAREPRLRGYLLDDQGSLRRHVALFVDGVQVRDRRGLGDPLQDDSEIYVVQALSGGLEHHHHHH”, the “soluble on expression in E. coli” value was “not soluble”. For “MGSDKIHHHHHHCSEELDSQPMESYPEGGEPLDVVCKEYGISDYEDIELLSYYKNNLEQANFSGLREEKLWLASFNVKDKSPIINWTDELPFNRNRKIYKGYGEYEDVTIQQITMLQTMYFNPKEFVASLSYYFGKDYGYLALLFRHDTQTKEVQVKRSEILAGFQYSIINNDCCYSLSGDTLYIAEKGFGYSNVGTLYTSEFISHEEAIYTHRDNKGFFVGRRNFKLGEDLWHIQVPQLNDEPADAKIEVSVEDNSKRVWKYNVNIIHYDGTKKNVTFEVDIDNGTIKGENDYTSLIIGKWKKTSGDAVATHVTYKNDGTFEYTSTEDSSYKEVGKYKIDGNKLYEMYSDEEEWIINDILLLNSMTLSVQELEADGVTPTGQKYSYQRVE”, the “soluble on expression in E. coli” value was “not soluble”. In the case of “MAHHHHHHMLVFRRNFSRFINNNTPKRGVRKVLHKNVTQYGKYTPNSNIVNQQNDNNKLVRGGGGLLSTFYESFIYGCGFFLSNRLLDQIFGPRTYDSFSNNMDYSNENSGGQAPDNYNSYPSENLNNNDPTINDNDFQQDIGLDDDTFDF”, the “soluble on expression in E. coli” value is reported as “not soluble”. With “MSEIEELVCIEASVTRKSTSNTVEIRESRRNKVTLGSSDSPAFPTPHLFLKNIVSFDEQSMYNLLYPRLQDPNLCSILSFKIAFEAKRVPGPLYISYDVTLTPQIFEEPDMETCGLCLLEEQHLFDMPNCAHVFHGDCIDKWLSTSNNCPLCGVEIMDDDE” the “soluble on expression in E. coli” value was “soluble”.
